Assays:
[1] = biological target: Recombinant, his tagged full length human frataxin protein (Abcam ab95502) (human) (UniProt Q16595); test: Simoa sandwich 3-step; capture Ab-2; frataxin 10000 pg/mL
[2] = biological target: Recombinant, his tagged full length human frataxin protein (Abcam ab95502) (human) (UniProt Q16595); test: Simoa sandwich 2-step (120 min-5 min); capture Ab-1; Diluent 1 + 10% NCS; frataxin 0.274 pg/mL
[3] = biological target: Recombinant, his tagged full length human frataxin protein (Abcam ab95502) (human) (UniProt Q16595); test: Simoa sandwich 2-step (120 min-5 min); capture Ab-1; Diluent 1 + 5% NCS
[4] = biological target: Recombinant, his tagged full length human frataxin protein (Abcam ab95502) (human) (UniProt Q16595); test: Simoa sandwich 2-step; capture Ab-1; 50 pM SβG; frataxin 55.6 pg/mL
[5] = biological target: Recombinant, his tagged full length human frataxin protein (Abcam ab95502) (human) (UniProt Q16595); test: Simoa sandwich 3-step; capture Ab-5
[6] = biological target: Recombinant, his tagged full length human frataxin protein (Abcam ab95502) (human) (UniProt Q16595); test: Simoa sandwich 2-step (120 min-5 min); capture Ab-1; Diluent 1 + 5% NCS; frataxin 4.12 pg/mL
[7] = biological target: Recombinant, his tagged full length human frataxin protein (Abcam ab95502) (human) (UniProt Q16595); test: Simoa sandwich 2-step (120 min-5 min); capture Ab-1; Diluent 1 + 10% NCS; frataxin 333 pg/mL
[8] = biological target: Recombinant, his tagged full length human frataxin protein (Abcam ab95502) (human) (UniProt Q16595); test: Simoa sandwich 2-step (120 min-5 min); capture Ab-1; Diluent 1 + 5% NCS; frataxin 12.3 pg/mL
[9] = biological target: Recombinant, his tagged full length human frataxin protein (Abcam ab95502) (human) (UniProt Q16595); test: Simoa sandwich 2-step (120 min-5 min); capture Ab-1; Diluent 1 + 10% NCS; frataxin 37.0 pg/mL
[10] = biological target: Recombinant, his tagged full length human frataxin protein (Abcam ab95502) (human) (UniProt Q16595); test: Simoa sandwich 2-step (120 min-5 min); capture Ab-1; Diluent 1 + 10% NCS; frataxin 1.37 pg/mL
[11] = biological target: Recombinant, his tagged full length human frataxin protein (Abcam ab95502) (human) (UniProt Q16595); test: Simoa sandwich 3-step; capture Ab-4; frataxin 100 pg/mL
[12] = biological target: Recombinant, his tagged full length human frataxin protein (Abcam ab95502) (human) (UniProt Q16595); test: Simoa sandwich 3-step; capture Ab-1; frataxin 1000 pg/mL
[13] = biological target: Recombinant, his tagged full length human frataxin protein (Abcam ab95502) (human) (UniProt Q16595); test: Simoa sandwich 2-step; capture Ab-4
[14] = biological target: Recombinant, his tagged full length human frataxin protein (Abcam ab95502) (human) (UniProt Q16595); test: Simoa sandwich 3-step; capture Ab-1; frataxin 100 pg/mL
[15] = biological target: Recombinant, his tagged full length human frataxin protein (Abcam ab95502) (human) (UniProt Q16595); test: Simoa sandwich 2-step; capture Ab-1
[16] = biological target: Recombinant, his tagged full length human frataxin protein (Abcam ab95502) (human) (UniProt Q16595); test: Simoa sandwich 2-step; capture Ab-1; 150 pM SβG; frataxin 6.17 pg/mL

Sequence of UniProt Q16595 (Q16595 42-210): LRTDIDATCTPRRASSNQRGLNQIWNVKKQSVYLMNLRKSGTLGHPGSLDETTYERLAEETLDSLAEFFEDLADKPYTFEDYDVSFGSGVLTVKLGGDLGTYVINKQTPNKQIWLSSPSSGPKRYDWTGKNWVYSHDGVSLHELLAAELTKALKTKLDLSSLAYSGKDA

Substance: Ab-3, mouse monoclonal [18A5DB1] to Frataxin (Abcam ab110328) (antibody)
- Ave AEB [1]: 32.2 AEB
- S/B [1]: 725
- Ave AEB [2]: 0.023 AEB
- S/B [2]: 1.27
- LOD [3]: 0.419 pg/mL
- Ave AEB [4]: 1.65 AEB
- S/B [4]: 90
- LOD [5]: 1.73 pg/mL
- Ave AEB [6]: 0.0434 AEB
- S/B [6]: 3.95
- Ave AEB [7]: 1.56 AEB
- S/B [7]: 145
- Ave AEB [8]: 0.123 AEB
- S/B [8]: 11.2
- Ave AEB [9]: 0.174 AEB
- S/B [9]: 16.2
- Ave AEB [10]: 0.0153 AEB
- S/B [10]: 1.42
- Ave AEB [11]: 2.79 AEB
- S/B [11]: 23.8
- Ave AEB [12]: 19.6 AEB
- S/B [12]: 333
- LOD [13]: 0.34 pg/mL
- Ave AEB [14]: 2.47 AEB
- S/B [14]: 50
- LOD [15]: 0.28 pg/mL
- Ave AEB [16]: 0.521 AEB
- S/B [16]: 11.6

Reference: US20220308072A1
